Usually stoichiometry N stands for a count of units in the complex or per binding partner.

Test [1] has as its target Fl–hRyR1(3614–3643)p: hRyR1(3614–3643)p with a 5,6-carboxyfluorescein moiety at the N-terminus (human).
The target of test [2] is Fl–hRyR1(1975–1999)p: hRyR1(1975–1999)p with a 5,6-carboxyfluorescein moiety at the N-terminus (human).
Test [3] shares this target. The experiment in a line: fluorescence polarisation.

Fl–hRyR1(1975–1999)p: hRyR1(1975–1999)p with a 5,6-carboxyfluorescein moiety at the N-terminus (human), sequence (P21817 1975-1999): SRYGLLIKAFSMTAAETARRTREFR
Fl–hRyR1(3614–3643)p: hRyR1(3614–3643)p with a 5,6-carboxyfluorescein moiety at the N-terminus (human), sequence (P21817 3614-3643): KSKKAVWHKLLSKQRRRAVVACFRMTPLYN

Regarding “full-length mammalian calmodulin (CaM_(1–148)) (from UniProt P0DP23 1-149) (natural protein)”, the stoichiometry N in test [1] and in test [2] was 1 each time. Further, in test [3], the saturation at ~100 μM CaM is > 85%.
